Columns and labels:
[1] = biological target: PTIP (UniProt Q6ZW49); test: reciprocal co-IP, Western blot; conditions: reference: WT 53BP1 (before and 1 h after IR); sites T334
[2] = biological target: RIF1 (UniProt Q5UIP0); test: reciprocal co-IP, Western blot; conditions: reference: WT 53BP1 (before and 1 h after IR); sites T334

Substance: 53BP1 (from UniProt Q12888) T334A 53BP1 (before and 1 h after IR)
- binding against the reference [1]: stronger
- binding against the reference [2]: stronger

— paper PMC12618078
